Laboratory results taken from patent US20200087410A1 (GLYCOTOPE, published 2020).

Molecular target: T1, CD40 (immobilized CD40, antigen ELISA / surface plasmon resonance) (human, UniProt P25942 21-193, limits assumed)
T1 construct: also called TNFRSF5; TNF receptor super family member 5
Assay: immobilized CD40; screen by antigen ELISA and surface plasmon resonance (method of the KD not named)
Procedure: Following expression of the different constructs in NM-H9D8 and NM-H9D8-E6Q12 cells, the titer of the humanized antibody variants was determined and their concentration adjusted. Then, the humanized antibodies were screened in an antigen ELISA and via surface plasmon resonance.

T1 sequence (P25942 21-193 limits assumed): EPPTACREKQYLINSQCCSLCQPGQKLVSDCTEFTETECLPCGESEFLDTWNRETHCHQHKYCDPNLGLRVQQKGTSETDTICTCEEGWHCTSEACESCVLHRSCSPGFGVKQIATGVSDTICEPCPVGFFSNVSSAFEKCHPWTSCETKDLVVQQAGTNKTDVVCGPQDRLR

- Kd: 25 nM
B1: humanized anti-CD40 antibody variant VH10/VL2 (as screened in Example 3) (antibody, V domains shown)
VH: EVQLVQSGAEVKKPGASVKISCKTSGYTFTEYIMHWVKQSPGKSLEWIGGIIPNNGGTSYNQKFKDRVTMTVDKSISTGYMELSRLRSDDTAVYYCTRREVYGRNYYALDYWGQGTLVTVSS
VL: DIQMTQSPSSLSASVGDRVTITCSASQGINNYLNWYQQKPGKAPKLLIYYTSSLHSGVPSRFSGSGSGTDYTFTISSLQPEDIATYYCQQYSNLPYTFGQGTKLEIKR
notes: Human gamma1 or gamma2 heavy constant region and human kappa constant region; also called hLob
